Assay results from US20220153832A1 (PIONYR IMMUNOTHERAPEUTICS, published 2022).

T1: Human Macrophage Receptor with Collagenous Structure (MARCO), full length, on cells (human, UniProt Q9UEW3 1-520)
T1 construct: the cell type is named under assay; also called huMARCO; HuMARCO
T1 sequence: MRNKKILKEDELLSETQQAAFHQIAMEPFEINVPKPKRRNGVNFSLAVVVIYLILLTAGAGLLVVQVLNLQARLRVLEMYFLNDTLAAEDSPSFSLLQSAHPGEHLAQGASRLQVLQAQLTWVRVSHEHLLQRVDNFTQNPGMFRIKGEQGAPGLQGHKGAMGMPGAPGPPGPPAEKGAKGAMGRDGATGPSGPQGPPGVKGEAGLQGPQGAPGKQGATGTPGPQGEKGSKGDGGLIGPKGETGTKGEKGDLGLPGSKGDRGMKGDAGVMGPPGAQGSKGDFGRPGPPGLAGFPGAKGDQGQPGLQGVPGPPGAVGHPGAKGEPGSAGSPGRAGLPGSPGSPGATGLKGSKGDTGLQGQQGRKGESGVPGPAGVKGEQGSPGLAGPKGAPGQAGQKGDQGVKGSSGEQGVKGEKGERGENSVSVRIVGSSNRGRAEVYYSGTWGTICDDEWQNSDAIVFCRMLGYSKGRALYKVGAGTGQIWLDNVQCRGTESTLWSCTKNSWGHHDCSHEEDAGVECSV

T2: Cynomolgus MARCO, full length, on cells (cynomolgus, UniProt A0A2K5X0Z2 1-519)
T2 construct: whole, on cells; also called cyno MARCO; CyMARCO
T2 sequence: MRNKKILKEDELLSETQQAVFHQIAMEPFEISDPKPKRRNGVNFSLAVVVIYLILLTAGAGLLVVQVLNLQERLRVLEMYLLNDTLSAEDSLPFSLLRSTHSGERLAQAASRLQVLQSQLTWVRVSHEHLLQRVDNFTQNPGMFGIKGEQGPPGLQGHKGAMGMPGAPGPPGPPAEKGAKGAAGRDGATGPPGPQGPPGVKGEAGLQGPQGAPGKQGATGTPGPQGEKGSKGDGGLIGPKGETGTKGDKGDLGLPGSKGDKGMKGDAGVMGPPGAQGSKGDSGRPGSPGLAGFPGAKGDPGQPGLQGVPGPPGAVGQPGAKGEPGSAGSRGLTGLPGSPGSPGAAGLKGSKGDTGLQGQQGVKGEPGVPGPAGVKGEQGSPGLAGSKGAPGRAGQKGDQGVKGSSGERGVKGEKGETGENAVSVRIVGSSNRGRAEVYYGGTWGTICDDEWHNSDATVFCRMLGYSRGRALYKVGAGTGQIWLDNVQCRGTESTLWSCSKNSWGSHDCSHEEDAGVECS

T3: human MSR1 (R&D Systems) (human, UniProt P21757 77-451, limits assumed)
T3 construct: Related scavenger receptor used as specificity control; also called MSRI
T3 sequence (looked up): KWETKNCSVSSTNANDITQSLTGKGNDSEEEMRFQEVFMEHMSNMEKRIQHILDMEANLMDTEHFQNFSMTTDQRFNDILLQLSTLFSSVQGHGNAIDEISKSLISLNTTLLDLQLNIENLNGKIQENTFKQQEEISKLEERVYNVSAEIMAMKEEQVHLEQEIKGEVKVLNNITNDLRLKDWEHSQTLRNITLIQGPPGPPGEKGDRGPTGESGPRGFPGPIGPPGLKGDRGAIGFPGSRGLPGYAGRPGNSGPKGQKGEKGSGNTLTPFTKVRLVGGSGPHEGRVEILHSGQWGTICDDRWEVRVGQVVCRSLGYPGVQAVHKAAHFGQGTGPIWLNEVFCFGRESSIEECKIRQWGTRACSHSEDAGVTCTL

T4: N-terminally polyhistidine tagged human MARCO ECD (147-520), recombinant (human, UniProt Q9UEW3 147-520)
T4 construct: also called PI-RG-3000; recombinant human MARCO; not shown: N-terminal polyhistidine tag
T4 sequence: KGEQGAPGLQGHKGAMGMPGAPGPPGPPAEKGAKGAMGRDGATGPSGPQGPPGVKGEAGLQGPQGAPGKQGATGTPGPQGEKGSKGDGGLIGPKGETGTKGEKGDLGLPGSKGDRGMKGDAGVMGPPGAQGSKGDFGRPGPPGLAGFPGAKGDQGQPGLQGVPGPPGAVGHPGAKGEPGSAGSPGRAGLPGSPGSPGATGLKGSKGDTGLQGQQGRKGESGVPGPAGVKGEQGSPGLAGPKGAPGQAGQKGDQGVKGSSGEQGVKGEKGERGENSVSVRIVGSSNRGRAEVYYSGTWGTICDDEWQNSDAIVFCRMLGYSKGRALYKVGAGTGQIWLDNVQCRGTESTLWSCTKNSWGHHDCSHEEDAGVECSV

B1: PI-3010-AB (antibody, human IgG1, kappa)
heavy: not shown
light: DIQMTQSPASLSTSLGETVSIECLASEGISNDLAWYQQKSGKSPQLLIYAASRLQDGVPSRFSGSGSGTRYSLKISGMQPEDEADYFCQQSYKYPLTFGSGTKLEIKRTVAAPSVFIFPPSDEQLKSGTASVVCLLNNFYPREAKVQWKVDNALQSGNSQESVTEQDSKDSTYSLSSTLTLSKADYEKHKVYACEVTHQGLSSPVTKSFNRGEC
B2: PI-HX-3031 (antibody)
heavy: QVQLKESGPGLVQPSQTLSLTCTVSGFSLTSYHVSWVRQPPGKGLEWMGAIWTGGSIAYNSLLKSRLSISRDTSKSQVFLKMNSLQTEDTATYYCARDLSDYYSSYTSFDYWGQGVMVTVSTAETTAPSVYPLAPGTALKSNSMVTLGCLVKGYFPEPVTVTWNSGALSSGVHTFPAVLQSGLYTLTSSVTVPSSTWSSQAVTCNVAHPASSTKVDKKIVPRECNPCGCTGSEVSSVFIFPPKTKDVLTITLTPKVTCVVVDISQNDPEVRFSWFIDDVEVHTAQTHAPEKQSNSTLRSVSELPIVHRDWLNGKTFKCKVNSGAFPAPIEKSISKPEGTPRGPQVYTMAPPKEEMTQSQVSITCMVKGFYPPDIYTEWKMNGQPQENYKNTPPTMDTDGSYFLYSKLNVKKETWQQGNTFTCSVLHEGLHNHHTEKSLSHSP
light: DIQMTQSPASLSTSLGETVSIECLASEGISNDLAWYQQKSGKSPQLLIYAASRLQDGVPSRFSGSGSGTRYSLKISGMQPEDEADYFCQQSYKYPLTFGSGTKLEIKRADAAPTVSIFPPSTEQLATGGASVVCLMNNFYPRDISVKWKIDGTERRDGVLDSVTDQDSKDSTYSMSSTLSLTKADYESHNLYTCEVVHKTSSSPVVKSFNRNEC
notes: Parental rat hybridoma, rat IgG2a
B3: PI-HX-3043 (antibody, rat IgG2a)
heavy: QVNLLQSRAALVKPGASVKLSCKASGYTFTDYYLHWVKQSHAKSLEWIGYINPNNAYTSYNEKFKSKATLTVDKSTNTAYMELSRLTSADSATYYCARDTTDYYNLHFAYWGQGTLVTVSSAETTAPSVYPLAPGTALKSNSMVTLGCLVKGYFPEPVTVTWNSGALSSGVHTFPAVLQSGLYTLTSSVTVPSSTWSSQAVTCNVAHPASSTKVDKKIVPRECNPCGCTGSEVSSVFIFPPKTKDVLTITLTPKVTCVVVDISQNDPEVRFSWFIDDVEVHTAQTHAPEKQSNSTLRSVSELPIVHRDWLNGKTFKCKVNSGAFPAPIEKSISKPEGTPRGPQVYTMAPPKEEMTQSQVSITCMVKGFYPPDIYTEWKMNGQPQENYKNTPPTMDTDGSYFLYSKLNVKKETWQQGNTFTCSVLHEGLHNHHTEKSLSHSP
light: DIQMTQSPASLSASLGETVSIECLTSEGISNDLAWYQQKSGKSPQLLIYDASRLEDGVPSRFSGSGSGTRYSLKISGMQTEDEADYFCQQSYKYPLTFGSGTKLEIKRADAAPTVSIFPPSTEQLATGGASVVCLMNNFYPRDISVKWKIDGTERRDGVLDSVTDQDSKDSTYSMSSTLSLTKADYESHNLYTCEVVHKTSSSPVVKSFNRNEC
notes: as for B2
B4: PI-3015-AB (antibody, human IgG1, kappa)
heavy: not shown
light: DIQMTQSPSSLSASVGDRVTITCRASEGISNDLAWYQQKPGKAPKLLIYAASRLQSGVPSRFSGSGSGTDYTLTISSMQPEDFATYYCQQSYKYPLTFGQGTKLEIKRTVAAPSVFIFPPSDEQLKSGTASVVCLLNNFYPREAKVQWKVDNALQSGNSQESVTEQDSKDSTYSLSSTLTLSKADYEKHKVYACEVTHQGLSSPVTKSFNRGEC
B5: PI-HX-3061 (antibody, rat IgG2a)
heavy: EVQLVESGGGLVQPGSSLKLSCVASKFTFSNYGMNWIRQAPKKGLEWIALIYYNSNNKYYADSVKGRFTISRDNSKNTLYLEMNSLRSEDTAMYYCAKSLTGGSDYFDSWGQGVMVTVSSAETTAPSVYPLAPGTALKSNSMVTLGCLVKGYFPEPVTVTWNSGALSSGVHTFPAVLQSGLYTLTSSVTVPSSTWPSQTVTCNVAHPASSTKVDKKIVPRNCGGDCKPCICTGSEVSSVFIFPPKPKDVLTITLTPKVTCVVVDISQDDPEVHFSWFVDDVEVHTAQTRPPEEQFNSTFRSVSELPILHQDWLNGRTFRCKVTSAAFPSPIEKTISKPEGRTQVPHVYTMSPTKEEMTQNEVSITCMVKGFYPPDIYVEWQMNGQPQENYKNTPPTMDTDGSYFLYSKLNVKKEKWQQGNTFTCSVLHEGLHNHHTEKSLSHSP
light: DVQMTQSPSYLAASPGESVSISCKASKSIGTFLAWYQEKPEKTNKLLIYSGSTLQSGTPSRFSGSGSGTDFTLTIRNLEPEDFAVYYCQQHDEYPFTFGSGTKLEIKRADAAPTVSIFPPSTEQLATGGASVVCLMNNFYPRDISVKWKIDGTERRDGVLDSVTDQDSKDSTYSMSSTLSLTKADYESHNLYTCEVVHKTSSSPVVKSFNRNEC
notes: Parental rat hybridoma, rat IgG2a; cross reactive with human and mouse MARCO

Tests used:
[1] = biological target: T1, Human Macrophage Receptor with …; assay: flow cytometry, cells overexpressing human MARCO
[2] = biological target: T2, Cynomolgus MARCO, full length, on cells; assay: flow cytometry, cells overexpressing cyno MARCO
[3] = biological target: T3, human MSR1 (R&D Systems); assay: ELISA on MSR1
Method in brief: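 Cross-reactivity with human MSR1 (R&D Systems) was tested by ELISA. Maxisorp plates were coated overnight with 0.1 ug/well protein in DPBS with Ca2+ and Mg2+, then blocked with PBS/Ca2+/2% FBS. Hybridoma supernatants were added 1:1 in that buffer for 1 hour at room temperature. Detection used HRP-conjugated anti-rat IgG for 1 hr, then TMB and A450.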

[4] = biological target: T4, N-terminally polyhistidine tagged human …; assay: label-free kinetics (ProbeLife Gator), mAb captured, human MARCO
Protocol: The kinetics assay used either anti-mouse Fc or anti-human Fc probes to capture the anti-MARCO antibodies onto the probe, and then a five-step kinetic protocol was used to measure the affinity of the antibodies to the antigen, including the following steps: baseline, loading, baseline, association, and dissociation. The kinetics buffer (K buffer) provided by ProbeLife was used to establish the baseline for 60 seconds, and then the anti-mFc or anti-hFc probes were loaded with 200 nM of the antibodies for 120s until the capture reached saturation, measurement of the baseline in K buffer was performed for another 60s, followed by the association step using 200 nM antigen (human MARCO, mouse MARCO or cyno MARCO), and the dissociation step performed in K buffer for 5-10 minutes. The assay was done at 37° C. to maximize antibody:antigen dissociation.
Kinetics and epitope binning analysis of the newly generated anti-human MARCO antibodies was performed as described in Example 3.

Binder | EC50 [1] | EC50 [2] | binding result [3] | koff [4] | kon [4]
B1 | 0.68 nM | 1.48 nM | – | – | –
B2 | – | – | no binding | 0.000798 s⁻¹ | 443000 M⁻¹ s⁻¹
B3 | – | – | – | 0.000849 s⁻¹ | 233000 M⁻¹ s⁻¹
B4 | 0.86 nM | 1.73 nM | – | – | –
B5 | – | – | no binding | – | –
